Experiment in all cases: MST
The target in assay [1] is T1, MBP-SUFU-Δ (human, UniProt Q9UMX1 32-278; Q9UMX1 361-483).
T1 chain: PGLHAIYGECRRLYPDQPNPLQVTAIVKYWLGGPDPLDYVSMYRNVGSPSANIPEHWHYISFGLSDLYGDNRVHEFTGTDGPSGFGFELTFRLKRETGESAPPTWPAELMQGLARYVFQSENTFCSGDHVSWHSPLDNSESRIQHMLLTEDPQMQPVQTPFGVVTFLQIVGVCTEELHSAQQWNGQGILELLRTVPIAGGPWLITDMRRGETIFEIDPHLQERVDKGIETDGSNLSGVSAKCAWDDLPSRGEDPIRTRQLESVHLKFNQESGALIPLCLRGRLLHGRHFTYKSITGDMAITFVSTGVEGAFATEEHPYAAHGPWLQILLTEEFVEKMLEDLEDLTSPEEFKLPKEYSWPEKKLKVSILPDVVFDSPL

Assay [2] addresses T2, MBP-SUFU-FL (human, UniProt Q9UMX1 32-483).
T2 chain: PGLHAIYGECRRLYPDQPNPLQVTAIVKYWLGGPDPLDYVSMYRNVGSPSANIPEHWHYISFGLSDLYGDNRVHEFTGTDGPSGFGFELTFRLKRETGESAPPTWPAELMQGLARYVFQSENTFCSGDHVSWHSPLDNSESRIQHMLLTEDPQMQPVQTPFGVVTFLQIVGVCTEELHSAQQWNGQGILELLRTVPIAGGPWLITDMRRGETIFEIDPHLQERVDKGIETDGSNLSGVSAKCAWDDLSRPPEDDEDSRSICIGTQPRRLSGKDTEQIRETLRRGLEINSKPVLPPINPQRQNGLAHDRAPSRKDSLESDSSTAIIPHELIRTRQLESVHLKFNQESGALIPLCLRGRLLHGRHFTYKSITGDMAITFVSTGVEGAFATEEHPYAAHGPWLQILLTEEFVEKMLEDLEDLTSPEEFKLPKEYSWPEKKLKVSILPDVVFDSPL

Assay [3] has as its target MBP-SUFU-SH (human, UniProt Q9UMX1 32-278; Q9UMX1 361-483).

Where no end group is shown, it is not given here. The star is where a group is joined. 5FAM = O=C1OC2(c3ccc(O)cc3Oc3cc(O)ccc32)c2ccc(C(=O)*)cc21

By Kd is commonly meant the constant that tells how readily two partners part at equilibrium. Higher therefore signals weaker binding.

B1: FAM-GLI1p (peptide)
peptide: 5FAM-TSPGGSYGHLSIGTMSP
In the case of B1, the Kd in assay [1] is 4.47 µM; in assay [2], 4.5 µM; in assay [3] it was 4.22 µM.

These data come from article PMC3852661 (2013).
